Test results reported in PMC4963197, “Phosphorylation acts positively and negatively to regulate MRTF-A subcellular localisation and activity” (eLife, 2016).

Target: G-actin, P68135
Test: size exclusion chromatography
Conditions: chain shown with the change

other: actins (apparent stoichiometry of G-actin binding): 2.3
B1: MRTF-A(67–199) L74A; L78A; S98D (protein)
chain: LSERKNVAQLKAQQRRTREELVSQGIMPPLKDPAAFHEQRRSLERARTEDYLKRKIRSRPERAELVRMHILEETSAEPSLQAKQLKLKRARLADDLNEKIAQRPGPMELVEKNILPVESSLKEAIIVGQVNYP
